T1: wild-type mature human HtrA2 (human)
T1 construct: made from the S306A construct that the methods name HtrA2^133–458; also called wild-type HtrA2; Omi; source: E. coli BL21 (λDE3), purified (Ni-HisTrap, gel filtration)
T1 chain: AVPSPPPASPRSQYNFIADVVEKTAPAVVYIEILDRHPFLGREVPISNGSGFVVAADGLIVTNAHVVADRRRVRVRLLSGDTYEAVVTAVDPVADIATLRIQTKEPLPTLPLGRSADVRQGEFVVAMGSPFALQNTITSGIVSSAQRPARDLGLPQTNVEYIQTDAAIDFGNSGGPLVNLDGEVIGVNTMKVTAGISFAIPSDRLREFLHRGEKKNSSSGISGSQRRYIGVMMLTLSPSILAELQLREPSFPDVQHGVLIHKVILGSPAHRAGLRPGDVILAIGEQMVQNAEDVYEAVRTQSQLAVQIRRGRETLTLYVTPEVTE

T2: wild-type mature HtrA2 (human, UniProt O43464 134-458)
T2 sequence (looked up): T1 chain

B1: full-length mature human HtrA2 without the active site serine (S306A) (enzyme, UniProt O43464 134-458, looked up)
chain: T1 chain with S173A
notes: human HtrA2 (Omi), mature form; the methods name the construct HtrA2^133–458; the SEC-MALS constants are of the trimer to hexamer step; also called HtrA2^S306A; MALVI^proS-HtrA2^S306A; source: E. coli BL21 (λDE3), purified (Ni-HisTrap, gel filtration)
B2: DD-PDZOpt activating peptide (peptide)
peptide: DDGQYYFV
notes: source: synthetic peptide, bought: GenScript
B3: full-length mature human HtrA2^133–458 S306A (enzyme, UniProt O43464 133-458, looked up)
chain: AAVPSPPPASPRSQYNFIADVVEKTAPAVVYIEILDRHPFLGREVPISNGSGFVVAADGLIVTNAHVVADRRRVRVRLLSGDTYEAVVTAVDPVADIATLRIQTKEPLPTLPLGRSADVRQGEFVVAMGSPFALQNTITSGIVSSAQRPARDLGLPQTNVEYIQTDAAIDFGNAGGPLVNLDGEVIGVNTMKVTAGISFAIPSDRLREFLHRGEKKNSSSGISGSQRRYIGVMMLTLSPSILAELQLREPSFPDVQHGVLIHKVILGSPAHRAGLRPGDVILAIGEQMVQNAEDVYEAVRTQSQLAVQIRRGRETLTLYVTPEVTE
notes: HtrA2 (Omi), human, mature form, residues 133-458 of the full-length protein of 458 residues, active site serine replaced (S306A); The purchased construct is named pET21b-HtrA2, and pET21b constructs are said to be carboxy-terminally His6-tagged; The purification text also describes removal of a SUMO-His6 tag; The introduction says that the mature protein lacks the 133 amino-terminal residues, …
B4: DD-PDZOpt activating peptide (peptide)
peptide: DDGQYYFV
notes: as for B2
B5: isolated HtrA2-PDZ domain (residues 349–458) (domain or fragment, human)
chain: NSSSGISGSQRRYIGVMMLTLSPSILAELQLREPSFPDVQHGVLIHKVILGSPAHRAGLRPGDVILAIGEQMVQNAEDVYEAVRTQSQLAVQIRRGRETLTLYVTPEVTE
notes: human HtrA2 (Omi), PDZ domain, residues 349-458; also called HtrA2^349-458; ALVIT-PDZ; source: E. coli BL21 (λDE3), purified (Ni-HisTrap, SENP1 cleavage, gel filtration); not shown: 6xHis-SUMO, N-terminal, cleaved
B6: isolated HtrA2-PDZ domain (residues 349–458) (domain or fragment, human, UniProt O43464 349-458, looked up)
chain: B5 chain
notes: HtrA2 (Omi), human mitochondrial serine protease, carboxy-terminal PDZ domain, residues 349-458 of the full-length protein of 458 residues; Constructs were either amino-terminally SUMO-His6-tagged (pET28b; tag removed with SENP1) or carboxy-terminally His6-tagged (pET21b); Isotope-labelled for NMR; also called ALVIT-PDZ; source: E. coli BL21 (λDE3), purified (Ni2+-HisTrap, gel filtration)

Series [1] concerns the molecule itself. The series can be described thus: SEC-MALS; HtrA2^S306A loaded at 5-7.5 mg/ml, Superdex Increase 200 10/300 GL, HBS pH 7.4, RT (~297 K), with 25 mM CaCl2; trimer to hexamer (fitted with the monomer-dimer equation); KD given as a lower limit. Background: In gel filtration, larger molecules generally elute earlier.
Series [2] concerns the molecule itself. Put plainly: SEC-MALS; HtrA2^S306A loaded at 4-7.5 mg/ml, Superdex Increase 200 10/300 GL, HBS pH 7.4, RT (~297 K), no added metal ions; trimer to hexamer (fitted with the monomer-dimer equation); KD given as a lower limit.
Series [3] addresses T1, wild-type mature human HtrA2. The series can be described thus: fluorescence cleavage assay (cleavage rate of H2Opt against DD-PDZOpt concentration, one-site binding model); apparent; 510 nM wild-type HtrA2 (monomeric concentration), 20 µM H2Opt, DD-PDZOpt varied, 20 mM HEPES pH 7.4, no EDTA, 2 mM CaCl2, 313 K. To be noted: both partners purified.
For series [4] the target is unchanged. Put plainly: fluorescence cleavage assay (cleavage rate of H2Opt against DD-PDZOpt concentration, one-site binding model); apparent; 510 nM wild-type HtrA2 (monomeric concentration), 20 µM H2Opt, DD-PDZOpt varied, 20 mM HEPES pH 7.4, no EDTA, 2 mM MgSO4, 313 K. The conditions noted are these: both partners purified.
Series [5] has the same target. Put plainly: fluorescence cleavage assay (cleavage rate of H2Opt against DD-PDZOpt concentration, one-site binding model); apparent; 510 nM wild-type HtrA2 (monomeric concentration), 20 µM H2Opt, DD-PDZOpt varied, 20 mM HEPES pH 7.4, 1 mM EDTA, 313 K; no additive. The conditions noted are these: both partners purified.
Series [6] deals with the molecule itself. Put plainly: SEC-MALS; HtrA2^S306A at increasing concentrations in HBS pH 7.4 without divalent ions; multimerization KD fitted assuming a fast monomer-dimer equilibrium.
In a further series the target is T2, wild-type mature HtrA2. Put plainly: cell-based or functional assay.
In series [7] the target is B6. The series can be described thus: NMR titration; DD-PDZOpt titrated to HtrA2-PDZ, 2D [15N,1H] and 2D [13C,1H] spectra (ALVIT methyl-labelled PDZ); line-shape analysis with TITAN, two-state ligand binding model; 298 K. The conditions noted are these: both partners purified.
Series [8] concerns the molecule itself. Put plainly: SEC-MALS; HtrA2-PDZ loaded at 100-800 µM, Superdex Increase 200 10/300 GL, HBS (20 mM HEPES, 150 mM NaCl) pH 7.4, RT (~297 K), with CaCl2; monomer to dimer; KD given as a lower limit.
Series [9] concerns the molecule itself. Put plainly: SEC-MALS; HtrA2-PDZ loaded at 100-800 µM, Superdex Increase 200 10/300 GL, HBS (20 mM HEPES, 150 mM NaCl) pH 7.4, RT (~297 K), with CuCl2; monomer to dimer; KD given as a lower limit.
Series [10] concerns the molecule itself. The series can be described thus: SEC-MALS; HtrA2-PDZ loaded at 100-800 µM, Superdex Increase 200 10/300 GL, HBS (20 mM HEPES, 150 mM NaCl) pH 7.4, RT (~297 K), with ZnSO4; monomer to dimer; KD given as a lower limit.
Series [11] deals with the molecule itself. The series can be described thus: SEC-MALS; HtrA2-PDZ loaded at 100-800 µM, Superdex Increase 200 10/300 GL, HBS (20 mM HEPES, 150 mM NaCl) pH 7.4, RT (~297 K), with Mg2+ (+MgCl2 in the figure, MgSO4 in Supplementary Table 1); monomer to dimer; KD given as a lower limit.
Series [12] concerns the molecule itself. Put plainly: SEC-MALS; HtrA2-PDZ in the presence of the activating peptide DD-PDZOpt; dimer to monomers.
Series [13] concerns the molecule itself. The series can be described thus: SEC-MALS; HtrA2-PDZ in HBS (20 mM HEPES, 150 mM NaCl) pH 7.4 supplemented with Zn2+, compared with the non-supplemented buffer; dimer to monomers.
Series [14] deals with the molecule itself. Put plainly: SEC-MALS; HtrA2-PDZ at a range of concentrations, Superdex Increase 200 10/300 GL, PBS pH 7.4, RT (~297 K); KD fitted assuming a fast monomer-dimer equilibrium; dimer to monomers; lower limit because the concentration range was limited by solubility.

Positions count from the first letter of the chain named. In names and notes the source's numbering stands.

With B1, the values for the Kd in series [1] and in [2] were no less than 490 µM and no less than 960 µM, respectively.
In the case of B2, the Kd amounted to 1.53 µM in series [3], 11.9 µM in series [4] and 27.9 µM in [5].
In series [6], B3 registered a Kd of 500 to 1000 µM.
Take B4: the “apparent K_(D,app) of DD-PDZOpt from the H2Opt cleavage rate, with 2 mM Mg2+, as percent of that in standard assay buffer” value in the series with wild-type mature HtrA2 is roughly 50%. This molecule came in with a Kd in series [7] of 3.18 ± 0.9 µM.
Regarding B5, the Kd was no less than 9200 µM in series [8], no less than 4160 µM in [9], no less than 250 µM in series [10] and no less than 3520 µM in series [11].
On to B6, for which the Kd was 10300 ± 2500 µM in series [12] and no less than 13000 µM in [14]. For the same molecule, the “fold increase of the propensity to dimerize with Zn2+ against the non-supplemented buffer” value in [13] was roughly 50 fold.

(Values after publication PMC11535027, “Structural basis of substrate recognition and allosteric activation of the proapoptotic mitochondrial HtrA2 protease” (Nature Communications, 2024).)
